The target in assay [1] is endogenous Arf6 of HEK293T cells (UniProt P62330). Briefly: cell-based or functional assay.
For assay [2], the target named is calmodulin-sepharose (BioVision) (Homo sapiens (Human)) (UniProt P0DP23). Put plainly: calcium dose-response of luciferase-IQSEC2 binding to calmodulin-sepharose; the number is a calcium concentration, not a protein concentration.
Assay [3] has the same target. Put plainly: luciferase-IQSEC2 cell extract on calmodulin-sepharose, free calcium greater than 200 nM (calcium-calmodulin), 0.1% Triton X-100, n=11.
Assay [4] shares this target. Briefly: luciferase-IQSEC2 cell extract on calmodulin-sepharose, no added calcium (5 mM EGTA, apocalmodulin), 0.1% Triton X-100, n=6.
In assay [5] the target is human Calm2 (NM_001743) with C-terminal triple FLAG tag (human) (UniProt P0DP24). Briefly: Lumier assay in HEK293T cells, renilla luciferase after pull-down normalized to FLAG ELISA.
For assay [6], the target named is human Calm1 (NM_006888) with C-terminal triple FLAG tag (human) (UniProt P0DP23). The assay is described as above.
The target in assay [7] is human Calm3 (NM_005184) with C-terminal triple FLAG tag (human) (UniProt P0DP25). The assay is described as above.
The target of assay [8] is human Calm2 (NM_001743) with C-terminal triple FLAG tag (human) (UniProt P0DP24). Put plainly: Lumier assay in HEK293T cells, renilla luciferase after anti-FLAG pull-down.
Assay [9] deals with human Calm1 (NM_006888) with C-terminal triple FLAG tag (human) (UniProt P0DP23). The assay is described as above.
In assay [10] the target is human Calm3 (NM_005184) with C-terminal triple FLAG tag (human) (UniProt P0DP25). The description is as above.
In assay [11] the target is GFP-FLAG [GFP: P42212]. Put plainly: Lumier assay in HEK293T cells, negative control interactor GFP-FLAG (background).

Sequence of endogenous Arf6 of HEK293T cells (P62330 2-175 limits assumed): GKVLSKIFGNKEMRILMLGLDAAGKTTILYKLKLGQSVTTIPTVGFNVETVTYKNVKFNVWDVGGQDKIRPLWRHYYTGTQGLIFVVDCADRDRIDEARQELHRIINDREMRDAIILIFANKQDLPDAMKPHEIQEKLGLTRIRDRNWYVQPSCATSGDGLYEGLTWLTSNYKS

In assay [1], “FLAG-tagged wild type IQSEC2 (pCAGGS) (from UniProt Q5JU85 1-1488)” returned an Arf6 activation (Arf6-GTP, GGA3 pulldown and immunoblot) with ionomycin, fold over sham transfected cells of 8.03 fold; an Arf6 activation (Arf6-GTP, GGA3 pulldown and immunoblot), fold over sham transfected cells of 3.87 fold.
With “renilla luciferase-HAx3-A350V IQSEC2 (from UniProt Q5JU85 1-1488)”, in [1], the Arf6-GTP promoted, against wild type IQSEC2 protein turned out to be 30 fold; the increase in total Arf6-GTP by ELISA against cells expressing wild type IQSEC2 is 25%; the total Arf6-GTP by ELISA, equivalent amounts of protein extract of stable HEK293T lines (spectrophotometric units) was determined as 0.075. Also, the free calcium concentration at half-maximal binding in assay [2] stood at 1 µM. The luciferase units bound to calmodulin sepharose (luciferase units) in assay [3] came out at 594. Also, in [4], the luciferase units bound to calmodulin sepharose (luciferase units) came out at 48.
In the case of “renilla luciferase-HAx3-wild type IQSEC2 (full length human IQSEC2, pcDNA3.1 Zeo construct) (from UniProt Q5JU85 1-1488)”, the total Arf6-GTP by ELISA, equivalent amounts of protein extract of stable HEK293T lines (spectrophotometric units) in assay [1] was determined as 0.06. In addition, the fold higher normalized interaction score, wild type against A350V IQSEC2 in [5] was found to be 14 fold; in [6] it was 31 fold; in assay [7], 31 fold. Further, the fold difference of interaction strength, wild type against A350V IQSEC2 in [8] worked out at 15 fold; in assay [9], 34 fold; in assay [10], 36 fold. In assay [11], this substance registered a fold change of interaction strength, wild type against mutant IQSEC2 of 1.07 fold.

The record behind these values is patent US20210032673A1.
